Literature values, collected in article PMC9434060 (Heliyon, 2022).

Details: hIntL-1, ligand not given; ref [10]

Kd: 85 ± 14 nM
B1: hIntL-1: Human intelectin-1, disulfide-linked trimeric lectin (protein, UniProt Q8WWA0 19-298, looked up)
Intelectin-1: TDEANTYFKEWTCSSSPSLPRSCKEIKDECPSAFDGLYFLRTENGVIYQTFCDMTSGGGGWTLVASVHENDMRGKCTVGDRWSSQQGSKAVYPEGDGNWANYNTFGSAEAATSDDYKNPGYYDIQAKDLGIWHVPNKSPMQHWRNSSLLRYRTDTGFLQTLGHNLFGIYQKYPVKYGEGKCWTDNGPVIPVVYDFGDAQKTASYYSPYGQREFTAGFVQFRVFNNERAANALCAGMRVTGCNTEHHCIGGGGYFPEASPQQCGDFSGFDWSGYGTHVGYS
